Consider 1 substance from publication PMC5446404.

The target in the experiment is recombinant human fortilin (Strep-tag II), biotinylated (human) (UniProt P13693). Put plainly: BLI. The settings on record: domain or fragment.
Chain of recombinant human fortilin (Strep-tag II), biotinylated (human) (P13693 whole entry, the tested form may be a part): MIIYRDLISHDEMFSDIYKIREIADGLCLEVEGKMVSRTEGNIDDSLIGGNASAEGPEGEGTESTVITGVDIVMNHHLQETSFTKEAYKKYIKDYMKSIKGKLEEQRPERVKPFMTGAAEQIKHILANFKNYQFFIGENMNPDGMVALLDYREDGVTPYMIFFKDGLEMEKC

Chain of GST-IRE1α-L (aa 1-70) (O75460 19-70): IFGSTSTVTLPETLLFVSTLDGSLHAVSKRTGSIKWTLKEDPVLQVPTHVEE

Regarding “GST-IRE1α-L (aa 1-70) (from UniProt O75460 19-70)”, the Kd (usually the free concentration of one partner at which half of the binding sites on the other are occupied at equilibrium, for simple one-to-one binding) is 18 mM.
